Experimental data taken from US11110154.

Experiments:
Assay in all cases: cell_activity
[1] = system: ZFP 33074-KOX (ZFP-TF repressor) (synthetic construct); settings: lentiviral, CAG17/48 neurons; apoptosis ~50% to 20%; AAV in Q175 mice reduced mHtt aggregates (P<0.001); indirect evidence of binding; scale: % increase of intracellular ATP in HD neurons
[2] = system: ZFP 30640 (ZFP-TF repressor) (synthetic construct); settings: AAV, Q175 mouse striatum (~179 CAG), injected at 2 months; indirect evidence of binding
[3] = system: ZFP 30645 (ZFP-TF repressor) (synthetic construct); settings: AAV, Q175 mouse striatum (~179 CAG), injected at 2 months; indirect evidence of binding

AGCAGCAGCAGCAGCAGCAGCAGCAGCA (double strand) [Htt CAG repeat, 33074 target]
activity [1]: 60

CAGCAGCAGCAGCAGCAGCAGCAGCAGC (double strand) [Htt CAG repeat, 30640 target]
activity (% reduction of nuclear Htt aggregates) [2]: > 90

CAGCAGCAGCAGCAGCAGCAGCAGCAGC (double strand) [Htt CAG repeat, 30645 target]
activity (% reduction of nuclear Htt aggregates) [3]: > 90
